Blank lines part the entries; values can stand above or below the binder they belong to.
Assays:
Test in all cases: -; FIG. 2B
[1] = target: T1, rabbit ANG2 (rabbit, UniProt G1T9B3 19-496)
T1 chain: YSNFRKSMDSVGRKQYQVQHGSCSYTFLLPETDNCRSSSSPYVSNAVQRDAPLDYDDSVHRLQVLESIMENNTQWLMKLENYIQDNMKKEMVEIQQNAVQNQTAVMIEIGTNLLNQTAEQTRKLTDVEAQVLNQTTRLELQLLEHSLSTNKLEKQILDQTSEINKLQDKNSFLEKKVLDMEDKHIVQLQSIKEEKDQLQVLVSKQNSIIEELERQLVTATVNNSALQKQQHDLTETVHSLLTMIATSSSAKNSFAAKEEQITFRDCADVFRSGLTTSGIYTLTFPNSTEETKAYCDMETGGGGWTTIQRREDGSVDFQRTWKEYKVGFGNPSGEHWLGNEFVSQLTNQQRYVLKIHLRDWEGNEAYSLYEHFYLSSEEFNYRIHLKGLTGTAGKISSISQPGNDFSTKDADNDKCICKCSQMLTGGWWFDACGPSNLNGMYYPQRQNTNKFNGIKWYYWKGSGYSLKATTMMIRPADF

[2] = target: T2, rat ANG2 (rat, UniProt O35462 19-496)
T2 chain: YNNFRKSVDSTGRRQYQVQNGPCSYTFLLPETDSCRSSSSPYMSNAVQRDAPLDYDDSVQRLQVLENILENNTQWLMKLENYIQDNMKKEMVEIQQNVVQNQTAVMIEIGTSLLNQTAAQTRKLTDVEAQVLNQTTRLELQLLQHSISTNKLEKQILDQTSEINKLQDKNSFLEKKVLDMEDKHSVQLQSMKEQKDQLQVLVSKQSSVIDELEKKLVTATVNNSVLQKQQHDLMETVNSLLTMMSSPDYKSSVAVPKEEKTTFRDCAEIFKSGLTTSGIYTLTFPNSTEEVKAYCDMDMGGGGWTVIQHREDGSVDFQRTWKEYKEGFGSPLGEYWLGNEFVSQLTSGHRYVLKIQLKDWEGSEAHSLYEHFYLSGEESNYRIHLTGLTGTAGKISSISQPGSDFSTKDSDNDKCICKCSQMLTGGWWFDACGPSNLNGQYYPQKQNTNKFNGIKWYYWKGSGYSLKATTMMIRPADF

[3] = target: Rat VEGF164
[4] = target: Rabbit VEGF 165
[5] = target: Cyno ANG-2 (monkey)

Kd [1]: 30.4 nM
Kd [2]: 40.5 nM
B1: anti-ANG-2×VEGF bispecific antibody ABP201 (bispecific antibody)
heavy: EVQLLESGGGLVQPGGSLRLSCAASGFTFSWYEMYWVRQAPGKGLEWVSSISPSGGWTMYADSVKGRFTISRDNSKNTLYLQMNSLRAEDTAVYYCATPLYSSDYLSAGDIWGQGTMVTVSSASTKGPSVFPLAPSSKSTSGGTAALGCLVKDYFPEPVTVSWNSGALTSGVHTFPAVLQSSGLYSLSSVVTVPSSSLGTQTYICNVNHKPSNTKVDKRVEPKSCDKTHTCPPCPAPEAAGGPSVFLFPPKPKDTLMISRTPEVTCVVVDVSHEDPEVKFNWYVDGVEVHNAKTKPREEQYNSTYRVVSVLTVLHQDWLNGKEYKCKVSNKALPAPIEKTISKAKGQPREPQVYTLPPSREEMTKNQVSLTCLVKGFYPSDIAVEWESNGQPENNYKTTPPVLDSDGSFFLYSKLTVDKSRWQQGNVFSCSVMHEALHNAYTQKSLSLSPGKGGGGSGGGGSEIVLTQSPGTLSLSPGERATLSCRASQSITGSYLAWYQQKPGQAPRLLITGASSWATGIPDRFSGSGSGTDFTLTISRLEPEDFAVYYCQQYSSSPITFGCGTRLEIKGGGGSGGGGSGGGGSGGGGSQVQLVESGGGVVQPGRSLRLSCAASGFTFTNYGMHWVRQAPGKCLEWVAVISHEGNNKYYVDSVKGRFTISRDNSKNTLYLQMNSLRAEDTAVYYCAREGIDFWSGLNWFDPWGQGTLVTVS
light: EIVLTQSPATLSLSPGERATLSCRASQSVHSSYLAWYQQKPGQAPRLLIYGASSRATGIPDRFSGSGSGTDFTLTISRLEPEDFAVYYCQQSYRTPSFGQGTRLEIKRTVAAPSVFIFPPSDEQLKSGTASVVCLLNNFYPREAKVQWKVDNALQSGNSQESVTEQDSKDSTYSLSSTLTLSKADYEKHKVYACEVTHQGLSSPVTKSFNRGEC

Kd [3]: 0.62 nM
Kd [4]: 2.06 nM
Kd [5]: 29.8 nM
B2: ABP 201 (bispecific antibody)
heavy: B1 heavy
light: B1 light
